Measurements as given in the supplement of paper PMC12764529.
± gives the half width of the 95% confidence interval.

What was measured:
[1] = folding stability dG unfold from chymotrypsin proteolysis; higher = more stable
Summary of the method: (§1)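 Only designs with AlphaFold2 dimer inter-PAE above 15 were retained; each was a mini-protein under 80 residues with no cysteine, in a PA-tagged cDNA display construct. After digestion with trypsin and chymotrypsin and sequencing, K50 was inferred by Bayesian fitting of counts, and unfolding free energy was derived per protease or combined against a sequence-predicted unfolded-state K50 and a shared folded-state K50.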

[2] = folding stability dG unfold (combined trypsin and chymotrypsin); higher = more stable
Summary of the method: as §1

[3] = folding stability dG unfold from trypsin proteolysis; higher = more stable
Summary of the method: as §1

| Sequence | folding stability dG unfold [1] | folding stability dG unfold [2] | folding stability dG unfold [3] |
| --- | --- | --- | --- |
| SAKKTVKLKIEIYKVKVEKLKDGKEKITEVEKIAELEIEAEVDEDGKVTIRIDGKEIEVPAGTSLEELLSAG [r14_909_TrROS_Hall] | 3.06 ± 0.12 kcal/mol | 2.76 ± 0.18 kcal/mol | 2.22 ± 0.17 kcal/mol |
| SAGGSAGGSMVEITFPPDLSEEEAEALAKELEEKYNKKVKITKVPPEIPVPLPQYDPTNWVEVSAGGSAGGS [r12_159_JUSTAS] | -0.0306 ± 0.11 kcal/mol | -0.108 ± 0.2 kcal/mol | -0.0502 ± 0.06 kcal/mol |
| SAGGDTVTTTETFPEKPILTVTTTSFSPSGTTTTTTTTYEVENGKIVSKLSTTTTTTAVAPAPPGTASAGGS [r16_682_JUSTAS] | 1.05 ± 0.024 kcal/mol | 0.941 ± 0.036 kcal/mol | 0.71 ± 0.034 kcal/mol |
| SAGGSAGGSAGGMGPPPIETIVIEKPLSEEEYEALKKAYPDKKVTVSEIPGTPNKIATIESAGGSAGGSAGG [r17_254_JUSTAS] | -0.192 ± 0.098 kcal/mol | 0.0243 ± 0.19 kcal/mol | 0.363 ± 0.042 kcal/mol |
| SAGGSMTEEELEKKAKEIAEELEKKYKEENPNVEVKVTFEVIPEKGIIKITATSPKGKKLKEIIIPLLSAGG [r13_247_JUSTAS] | 3.54 ± 0.23 kcal/mol | 3.9 ± 0.31 kcal/mol | 3.74 ± 0.28 kcal/mol |
| GPSPVSVSTSTSTSLSTVGNTPVLVTTTTTTTTTLSPDPTDPSVTTTTTTTTTTTTVYDPANGKPLSTTTSS [r1_406_JUSTAS] | 1.86 ± 0.059 kcal/mol | 1.83 ± 0.14 kcal/mol | 1.83 ± 0.079 kcal/mol |
| SAGGSAGGSAFKLPPGKKITIFFDPENGNFAIMVPDGNERRVPMPAEELIKLGFPVEIIGPWSAGGSAGGSA [r18_125_TrROS] | 0.566 ± 0.25 kcal/mol | 0.517 ± 0.19 kcal/mol | 0.365 ± 0.14 kcal/mol |
| SAMIVKDLKTKEEIKKVLEEIAKKLGYPNVTPEEAEEILKKIGVKILSIEKNPKNPEKYIIKIKIEKPKSAG [r14_678_JUSTAS] | 2.34 ± 0.033 kcal/mol | 2.29 ± 0.14 kcal/mol | 2.23 ± 0.1 kcal/mol |
| SAGGSAGGSAGGGSMKEKKLTVGDKEIIVTYNPETGTATVKSPENSVSVFPLEELKKLLSAGGSAGGSAGGS [r10_1140_JUSTAS] | 0.741 ± 0.1 kcal/mol | 0.318 ± 0.24 kcal/mol | -1.25 ± 0.93 kcal/mol |
| SAGWIIKIYFPDKKKEIMISRFPDGQWWMVQVHDKKGEPRQTIPAGMPVDELLKDFPDAKVEVYPFEPPSAG [r5_314_TrROS] | 2.59 ± 0.051 kcal/mol | 2.21 ± 0.086 kcal/mol | 1.55 ± 0.039 kcal/mol |
| SAGGSAGGSPVKDPDGKEVVPIQMTFIIRDPEMGKPVLITITFYIDPAPGGKIKDISIDIFPLSAGGSAGGS [r12_0_TrROS] | 4.29 ± 0.17 kcal/mol | 4.04 ± 0.17 kcal/mol | 3.51 ± 0.27 kcal/mol |
| SAGGREITIMIWMPLEDMEEFANEIANALAAEGYKVKDIEIQFKVIPDPENGRPWVMFMIEVEIEPPSAGGS [r8_475_TrROS] | 4.717 ± 0.044 kcal/mol | 4.27 ± 0.1 kcal/mol | 2.96 ± 0.19 kcal/mol |
| SAGGSAGVSTSKGSSVTTLKIDYKDDVVIKYSYNPSTGTVYTTVIDPETGNPVTVETYSVSPDVPLSAGGSA [r15_425_JUSTAS] | 1.26 ± 0.084 kcal/mol | 1.02 ± 0.037 kcal/mol | 0.649 ± 0.014 kcal/mol |
| SAGGGMVRPSIKITKHPDTYVATVTVTHPHRPVTVTLPFSSEPEAISEAEKIVEELIATPVPSPAGASAGGS [r16_24_JUSTAS] | 0.831 ± 0.072 kcal/mol | 0.841 ± 0.11 kcal/mol | 0.775 ± 0.037 kcal/mol |
| SMKVEIPPELVEAIEKALAEKKPGEEVEIEFEHPDGPLIRVRIEKDGRVRIEVFEHPDKLIAEFEFEPKPSA [r9_132_TrMRF] | 2.98 ± 0.087 kcal/mol | 3.14 ± 0.077 kcal/mol | 3.31 ± 0.095 kcal/mol |
| SAGGEEEILRQIREAAKKGEEVTIVFPKGMSIEELKKLIEEELGVEVEEIKVEKNENGELTVTIKVKSAGGS [r16_318_TrROS_Hall] | 2.99 ± 0.11 kcal/mol | 4.07 ± 0.26 kcal/mol | 4.33 ± 0.24 kcal/mol |
| SAGGSAGGSAGMTLRLKIRVYDPETREEVEEKEIEVELPPGASLEELLAALPPEQVEVEFSAGGSAGGSAGG [r17_339_TrROS_Hall] | 1.1 ± 0.2 kcal/mol | 0.848 ± 0.15 kcal/mol | 0.534 ± 0.12 kcal/mol |
| SAMTVTSSVTTQPVPDSSDTVTYTNITVTIGNQTVTYTETVTYSSTDPTLRTVTTLLPDGTTVTTTVPVGSA [r9_897_JUSTAS] | 2.6 ± 0.084 kcal/mol | 2.18 ± 0.13 kcal/mol | 1.94 ± 0.1 kcal/mol |
| SAGGKVYEFEIEVELLDPETGKPKKIKLKVPVFVDPKTGKVTKKVEAEPEPNVPKEEAEKIAKEIIEAESAG [r14_152_TrMRF] | 1.71 ± 0.073 kcal/mol | 1.36 ± 0.31 kcal/mol | -0.04 ± 0.38 kcal/mol |
| SAGGSAGGGPPGTTTTTISTPDGPVTVTVSPTSVTVTRPGSNETVTSSGSPTTTLEEIAAEIAASAGGSAGG [r6_317_JUSTAS] | 1.58 ± 0.052 kcal/mol | 2.24 ± 0.11 kcal/mol | 2.88 ± 0.14 kcal/mol |
| SAGGSAGGSAGGMIVIEVERKEGEEERKEVIVIPNDPEKAEAEAKKLAEEGPVEKVTIKKESAGGSAGGSAG [r3_310_JUSTAS] | 1.3 ± 0.066 kcal/mol | 1.04 ± 0.28 kcal/mol | 0.243 ± 0.11 kcal/mol |

| Sequence | folding stability dG unfold [1] | folding stability dG unfold [2] | folding stability dG unfold [3] |
| --- | --- | --- | --- |
| SAGKKLFIKVKIRVKKKVKLKDGKTVEKEKELTLLIEAESEEEALEAAKKLAEELGLEIEKVEIFKAPSAGG [r19_176_TrROS_Hall] | 3.75 ± 0.16 kcal/mol | 3.09 ± 0.27 kcal/mol | 2.41 ± 0.15 kcal/mol |
| SAGGSAGGSAGSKTPSVLVIEVDANTSIEKILELYKKNYPVGEIRVFTRPDGRKIAVITGSAGGSAGGSAGG [r11_97_TrMRF] | 2.33 ± 0.069 kcal/mol | 2.31 ± 0.12 kcal/mol | 2.22 ± 0.028 kcal/mol |
| SAGTIRGLPAEFAKRIANELAQNGYEIVAVTVTYDPPNGTFKIEVEMRPPNGKVREHDIEIQVRLPPDDSAG [r5_985_TrROS] | 2.7 ± 0.092 kcal/mol | 2.45 ± 0.17 kcal/mol | 1.72 ± 0.057 kcal/mol |
| SASPELRKLAEEAAERLVKELGVEKLEFTFTAPVLRPVYTYDPGGNKTPRLEEEIVTYSVTAVVPPEAASAG [r14_232_TrMRF] | -0.21 ± 0.31 kcal/mol | -0.0957 ± 0.2 kcal/mol | -0.0655 ± 0.14 kcal/mol |
| SAGGSAGGSMKVVVTAKLPGGEVLQKTIPVDESVLKKMSKEEVIELLKKEGLPENVEIKFEPKSAGGSAGGS [r12_742_JUSTAS] | 2.17 ± 0.15 kcal/mol | 1.81 ± 0.24 kcal/mol | 1.34 ± 0.067 kcal/mol |
| SAGGKVKALIIPAPDEPGKPVYLKIIHPDGEIVYPLPNDITEEEAKAAAIELGEENGLDLDEIEIAESAGGS [r16_753_TrMRF] | 0.893 ± 0.065 kcal/mol | 0.746 ± 0.099 kcal/mol | 0.537 ± 0.032 kcal/mol |
| SAGGSAGGSAGGPPVLAESTFSFPDGVTVRLAFLPDGKAIAELTPPDGSKIEVEFDVDASAGGSAGGSAGGS [r10_1184_TrMRF] | 0.203 ± 0.14 kcal/mol | 0.189 ± 0.23 kcal/mol | -0.214 ± 0.11 kcal/mol |
| SAGGSAGGSAMITSDDLEKLLKKLGIDPKKLGPEKLAKIFKELYPDAIITADPEGKAYIYPSAGGSAGGSAG [r3_375_TrMRF] | 0.467 ± 0.19 kcal/mol | 1.2 ± 0.14 kcal/mol | 1.72 ± 0.07 kcal/mol |
| SAGGSAGGSKKALVVFYNPETGEVEVLEVEGDADLLKELFEPGTVVEIRVGDEVITIYPEDLKSAGGSAGGS [r20_36_TrMRF] | 2.41 ± 0.054 kcal/mol | 2.11 ± 0.058 kcal/mol | 1.51 ± 0.085 kcal/mol |
| SAMVVTYDPATGKITVNVTLYVEEPLTPEERAALAAAIKAALAAAHPDVDVTVTLHPAPSPEEVEKLAASAG [r14_406_JUSTAS] | 2.23 ± 0.058 kcal/mol | 2.47 ± 0.12 kcal/mol | 2.92 ± 0.14 kcal/mol |
| SAGGSAGGSAGEKTIKIKVKDKNGKTKTITLKIKNAKFKPGQKIEIVKVNKNGSLEIKLKSAGGSAGGSAGG [r11_733_TrROS_Hall] | 1.82 ± 0.087 kcal/mol | 1.6 ± 0.24 kcal/mol | 0.678 ± 0.059 kcal/mol |
| SAGGSAGGSAGDDNKKKPKPKIEIQPVRMTMPFPENGLRIEIDIWVIKDGNIIFMIEWYPSAGGSAGGSAGG [r11_463_TrROS] | 3.72 ± 0.17 kcal/mol | 3.3 ± 0.11 kcal/mol | 2.92 ± 0.12 kcal/mol |
| SAGGSAGGSAGSVIVTSTTSTLPNGTVVTNETVSDPSNPGVTTKKTSTTYPDGSVTTTESSAGGSAGGSAGG [r11_483_JUSTAS] | 1.73 ± 0.047 kcal/mol | 1.36 ± 0.057 kcal/mol | 0.213 ± 0.043 kcal/mol |
| SAGGSAGGSAGGGVEVLSAERRRIPETGLVLVVIREKEPLKPIVVLMPEEDAVVFLKHFSAGGSAGGSAGGS [r10_988_TrMRF] | 0.92 ± 0.1 kcal/mol | 0.703 ± 0.091 kcal/mol | 0.14 ± 0.094 kcal/mol |
| SAGGMKIVEITEEVPPGAVVRITFEDGSKREIKIPNVAELKGKKITLELPGLKVVKIEVVPAKEGEEVSAGG [r13_587_TrROS_Hall] | 1.69 ± 0.29 kcal/mol | 2.05 ± 0.48 kcal/mol | 2.3 ± 0.15 kcal/mol |
| SAGGSAGGSAGGQLKLKLKVKVTTRVRDPATGKTYTVTEEVEVTVELEFPPPPLPPGFKSAGGSAGGSAGGS [r10_1026_TrROS_Hall] | 4.2 ± 0.17 kcal/mol | 3.64 ± 0.21 kcal/mol | 2.7 ± 0.22 kcal/mol |
| SAGDVKIDIHYDEDGYIRVTVPYKSPHEAREEADELARWLAKQFGPKNIDINVEPHPNGMLVIRIPIKKSAG [r5_772_TrROS] | 3.05 ± 0.082 kcal/mol | 2.62 ± 0.12 kcal/mol | 2.17 ± 0.099 kcal/mol |
| SAGMTIELPNATVTLERVPVPATGESAWVVTVTARHPDGSTPTVVAVFPEDTPPEDVLAAALALAEELESAG [r5_704_TrMRF] | 4.62 ± 0.075 kcal/mol | 4.78 ± 0.16 kcal/mol | 4.75 ± 0.44 kcal/mol |
| MKLLKITITITVTRQFPTVPVTSTTTITLEYTTPPDDPAAIEEAKKTAEEIAKKLGATDVTVTTEEVVLESS [r1_346_JUSTAS] | 4.08 ± 0.057 kcal/mol | 3.84 ± 0.11 kcal/mol | 3.34 ± 0.11 kcal/mol |
| SYSIDTSKIEEAAAALPPNAVAELELTANVPESGFTLKLKVTITVDPAGKVTRITFTDPATGKKIATVDVGS [r1_165_JUSTAS] | 1.52 ± 0.11 kcal/mol | 2.1 ± 0.12 kcal/mol | 2.47 ± 0.069 kcal/mol |
| SAGGSAGGEPELNVLETLEETVDPNTGLTYTTELVQLPDGTLVTVKTLYDKATGTWTVLETTPESAGGSAGG [r6_262_JUSTAS] | 2.07 ± 0.079 kcal/mol | 2.18 ± 0.13 kcal/mol | 2.4 ± 0.18 kcal/mol |
